# According to patent US11332546B2, “Protease inhibitory antibodies and methods of use thereof” (The Regents of The University of California, priority 2019, dated 2022):
# Substitutions are numbered along the chain they refer to.
# T1: BACE2 (Homo sapiens, UniProt Q9Y5Z0)
# T1 sequence (Q9Y5Z0 63-518): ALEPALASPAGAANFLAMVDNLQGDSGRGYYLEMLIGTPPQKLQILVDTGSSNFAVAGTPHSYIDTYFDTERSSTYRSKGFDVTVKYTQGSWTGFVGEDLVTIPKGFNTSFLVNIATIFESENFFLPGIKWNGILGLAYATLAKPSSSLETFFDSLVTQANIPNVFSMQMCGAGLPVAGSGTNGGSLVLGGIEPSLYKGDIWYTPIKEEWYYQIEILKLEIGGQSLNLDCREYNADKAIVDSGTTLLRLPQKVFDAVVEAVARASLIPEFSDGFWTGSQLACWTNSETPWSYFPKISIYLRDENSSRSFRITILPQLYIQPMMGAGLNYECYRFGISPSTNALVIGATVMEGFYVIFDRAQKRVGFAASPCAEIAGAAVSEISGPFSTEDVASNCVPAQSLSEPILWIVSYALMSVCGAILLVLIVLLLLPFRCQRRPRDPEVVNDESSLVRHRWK
# B1: Fab 2B4: anti-MMP-14 antibody clone; VL SEQ ID NO:88, VH SEQ ID NO:1, CDR-H3 SEQ ID NO:4 (antibody, V domains shown)
# VH: EVQLVESGGGLVQPGGSLRLSCAASGFNLYSSYIHWVRQAPGKGLEWVASIYSSYSSTYYADSVKGRFTISADTSKNTAYLQMNSLRAEDTAVYYCARSDSAVYSVRRMGSSGLAAYAMDYWGQGTLVTVSSAS
# VL: DIQMTQSPSSLSASVGDRVTITCRASQSVSSAVAWYQQKPGKAPKLLIYSASSLYSGVPSRFSGSRSGTDFTLTISSLQPEDFATYYCQQYSYGYSSLITFGQGTKVEIKR
# B2: IgG B1A4: anti-BACE1 inhibitory Fab B1A4 converted into IgG format (antibody, V domains shown)
# VH: EVQLVESGGGLVQPGGSLRLSCAASGFNISYSSIHWVRQAPGKGLEWVAYISPSSSYTSYADSVKGRFTISADTSKNTAYLQMNSLRAEDTAVYYCARHYYVSVGSGIDYWGQGTLVTVSSAS
# VL: B1 VL with L73P, Y91A, Y93A, G94S, Y95P, S96Y, S97A
# B3: Fab LG4: anti-MMP-12 antibody clone; VL SEQ ID NO:112, VH SEQ ID NO:114, CDR-H3 SEQ ID NO:117 (antibody, V domains shown)
# VH: EVQLVESGGGLVQPGGSLRLSCAASGFNLYYSYMHWVRQAPGKGLEWVASISSYYGYTSYADSVKGRFTISADTSKNTAYLQMNSLRAEDTAVYYCARSPIVYYELFMFIDMGAQGWKYGMDYWGQGTLVTVSSAS
# VL: DIQMTQSPSSLSASVGDRVTITCRASQSVSSAVAWYQQKPGKAPKLLIYSASSLYSGVPSRFSGSRSGTDFTLTISSLQPEDFATYYCQQTFYPFTFGQGTKVEIKR
# Tests used:
# [1] = test system: cdMMP-9; experiment: FRET inhibition selectivity test, cdMMP-9 (Example 1); format: biochemical; conditions: Fab at 500 nM
# Procedure: (§3) For inhibition tests, 1 μM Fabs were 2-fold serially diluted into protease specific assay buffer and incubated with 1-10 nM proteases for 30 min at room temperature. […] Inhibition percentages at given concentrations were calculated by comparing the initial reaction rates in the presence or absence of inhibitor. IC50 was determined as the concentration that achieved 50% inhibition, and KI values were calculated using KI=IC50/(S/Km+1). Vmax and Km at various Fab concentrations were measured to determine the inhibition type. FRET inhibition assays were also used for selectivity tests of isolated Fabs with the relevant proteases.
# [2] = biological target: T2, cdMMP-14 (Homo sapiens, UniProt P50281); experiment: In vitro proteolytic stability of Fab with its target protease (cdMMP-14); format: physicochemical; parameters: human MMP-14 (residue 114-320); hexahistidine (C); made in house; host or cells: E. coli (periplasm); conditions: 1 μM Fab with 1 μM protease, 37° C., 24 hours, SDS-PAGE
# [3] = biological target: T3, BACE1 (Homo sapiens, UniProt P56817); experiment: Amyloid precursor protein (MBP-APP571-696) degradation by BACE1; format: biochemical; conditions: 1 μM IgG, 1 μM BACE1, 5 μM MBP-APP, 37° C., 24 h; 86% without IgG
# T3 construct: human β-secretase 1 (BACE1, residue 46-457); made in house; host or cells: HEK293F (secreted, protein A purified)
# Procedure: For amyloid precursor protein (APP) degradation studies, APP571-696 was cloned to the C-terminal of maltose binding protein (MBP) for E. coli expression and purified using amylose resin (NEB). 5 μM purified MBP-APP was incubated with 1 μM BACE1-Fc in the absence or presence of 1 μM IgG in BACE1 assay buffer at 37° C. for 24 h. In addition, APP571-696 was cloned to a pcDNA plasmid carrying a SPE leader for secretion expression. Transfected HEK293F cells were cultured in Expi293 media for 72 hrs with the presence of 14-800 nM purified IgG. The supernatants were clarified by centrifugation and 0.45 μm filtration, and produced Aβ1-40 was quantified by ELISA (Abcam).
# [4] = biological target: T1, BACE2; experiment: FRET inhibition selectivity test, BACE2; format: biochemical; conditions: IgG
# Procedure: as §3
# [5] = biological target: T3, BACE1; experiment: FRET peptide inhibition assay, BACE1 (M-2420); format: biochemical; conditions: IgG format; BACE-1, FRET peptide
# Procedure: as §3
# [6] = biological target: T4, cdMMP-12 mutant D4 (Homo sapiens, UniProt P39900, A167E/A173P/A252Q/H206S/I245T/K233R/M156E/N119Q/N126H/R135E/T215V/V161I/Y113D/Y132K); experiment: Proteolytic stability of Fabs with cdMMP-12 D4; format: physicochemical; conditions: 2 μM Fab, 2 μM cdMMP-12 D4, 4 h, 37° C.
# T4 construct: hexahistidine (C); made in house; host or cells: E. coli BL21, pET32b (cytoplasmic, soluble fraction)
# Procedure: (§1) Proteolytic stability tests 2 μM purified Fabs were incubated with 2 μM cdMMP-12 wt/D4 in 50 mM HEPES, 150 mM NaCl pH 7.5 at 37° C. for 4 h. Samples were analyzed by using 12% non-reducing SDS-PAGE and stained with Coomassie blue. Densitometric interpretation was conducted using a ChemiDoc imager (Bio-Rad).
# [7] = biological target: T5, cdMMP-12 wt (Homo sapiens, UniProt P39900); experiment: Proteolytic stability of Fabs with cdMMP-12 wt; format: physicochemical; conditions: 2 μM Fab, 2 μM cdMMP-12 wt, 4 h, 37° C.
# T5 construct: hexahistidine (C); made in house; host or cells: E. coli BL21 (pET32b, cytoplasmic)
# Procedure: as §1
# [8] = biological target: T2, cdMMP-14; experiment: Bio-layer interferometry on cdMMP-14; format: binding; parameters: human MMP-14 (residue 114-320); hexahistidine (C); made in house; host or cells: E. coli periplasm; conditions: listed as LG4; read-out: KD toward cdMMP-14
# [9] = biological target: cdMMP-9; experiment: Bio-layer interferometry on cdMMP-9; format: binding; conditions: listed as LG4; read-out: KD toward cdMMP-9
# Target sequence in this assay (P14780 with tags, fused parts or gaps DEL216-390 limits assumed): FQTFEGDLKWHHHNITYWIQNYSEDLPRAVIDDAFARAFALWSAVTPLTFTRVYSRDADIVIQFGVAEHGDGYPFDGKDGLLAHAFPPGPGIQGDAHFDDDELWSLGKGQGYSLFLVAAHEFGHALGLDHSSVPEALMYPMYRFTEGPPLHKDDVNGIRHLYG
# [10] = biological target: T5, cdMMP-12 wt; experiment: FRET peptide inhibition assay, cdMMP-12 wt; format: biochemical; conditions: toward cdMMP-12 wild type; listed as LG4
# Procedure: (§2) FRET peptide inhibition assays In 96-well assay plates (Corning), 60/250/350/10/10/30 nM of (cd)MMP-1/-7/-9/-12 D4/-12 wt/-14 were preincubated with 1 nM-1 μM purified Fabs for 30 min at room temperature then 1 μM substrate M-2350 (Bachem) was added. Generated fluorescent signals (λEx=328 nm, λEm=393 nm) were monitored at 37° C. to measure the initial velocities. To calculate inhibition constants (KIs), data were fit with the equations for slow tight-binding inhibitors. The inhibition type of the Fabs was determined using the initial velocities of cdMMP-12 D4 as a function of substrate concentration (250-2000 nM) at various Fab concentrations (31-500 nM). The values of Vmax and Km were derived from linearization in accordance with the Lineweaver-Burk equation.
# [11] = biological target: T5, cdMMP-12 wt; experiment: Inhibition of proteolysis of modified TEM-1 ([…]) by cdMMP-12 wt; format: biochemical; conditions: 10 μM Fab, 700 nM cdMMP-12 wt, 250 nM modified TEM-1, 4 h
# Procedure: Inhibition tests with macromolecular substrates 10 μg/mL FITC-conjugated elastin (AnaSpec) was incubated with 7 nM cdMMP-12 D4/wt and 2-2000 nM purified Fab in 50 mM Tris-HCl, 150 mM NaCl, 5 mM CaCl2), 100 μM ZnCl2 pH 7.5. Generated fluorescent signals were measured at 12 h with λEx of 490 nm and λEm of 520 nm. For inhibition assays on fibronectin, 200 nM fibronectin (Corning) was incubated with 200-350 nM cdMMP-12 wt and 2 μM GM6001 or 0.1-6 μM Fabs in 50 mM HEPES, 150 mM NaCl pH 7.5 at 37° C. for 2-4 h. The samples were separated on 5% non-reducing SDS-PAGE and analyzed by western blotting with anti-Fibronectin antibody (Abcam) and chemiluminescent substrate (Thermo Scientific). For inhibition assays on modified TEM-1 carrying cleavable sequence ([…] (SEQ ID NO:134)) and a N-terminal HA tag, 250 nM modified TEM-1 was incubated with 700 nM cdMMP-12 wt and 10 μM Fabs in 50 mM HEPES, 150 mM NaCl pH 7.5 at 37° C. for 4 h. The samples were separated on 12% non-reducing SDS-PAGE, and the modified TEM-1 was visualized by western blotting using anti-HA antibody (Invitrogen) and chemiluminescent substrate. Assays without cdMMP-12s or Fabs were performed as controls.
# [12] = biological target: T4, cdMMP-12 mutant D4; experiment: FRET peptide inhibition assay, cdMMP-12 D4; format: biochemical; conditions: cdMMP-12 D4, FRET peptide, 31-500 nM Fab
# Procedure: as §2
# [13] = biological target: T5, cdMMP-12 wt; experiment: Fibronectin proteolysis inhibition, cdMMP-12 wt (western blot); format: biochemical
# Procedure: Inhibition tests with macromolecular substrates 10 μg/mL FITC-conjugated elastin (AnaSpec) was incubated with 7 nM cdMMP-12 D4/wt and 2-2000 nM purified Fab in 50 mM Tris-HCl, 150 mM NaCl, 5 mM CaCl2), 100 μM ZnCl2 pH 7.5. Generated fluorescent signals were measured at 12 h with λEx of 490 nm and λEm of 520 nm. […] The samples were separated on 5% non-reducing SDS-PAGE and analyzed by western blotting with anti-Fibronectin antibody (Abcam) and chemiluminescent substrate (Thermo Scientific). […] Assays without cdMMP-12s or Fabs were performed as controls.
# T5 sequence (P39900 106-263): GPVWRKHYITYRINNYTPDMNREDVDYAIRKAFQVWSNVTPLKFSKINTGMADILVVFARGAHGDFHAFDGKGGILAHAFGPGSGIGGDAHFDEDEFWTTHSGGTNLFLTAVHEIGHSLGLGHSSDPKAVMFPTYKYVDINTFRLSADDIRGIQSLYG
# T4 sequence (P39900 106-263 Y113D/N119Q/N126H/Y132K/R135E/M156E/V161I/A167E/A173P/H206S/T215V/K233R/I245T/A252Q): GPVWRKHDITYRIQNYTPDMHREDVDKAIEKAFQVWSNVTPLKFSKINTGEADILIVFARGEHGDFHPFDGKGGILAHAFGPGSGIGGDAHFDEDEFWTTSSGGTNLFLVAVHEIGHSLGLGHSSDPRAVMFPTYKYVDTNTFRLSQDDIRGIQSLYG
# T3 sequence (P56817 46-457): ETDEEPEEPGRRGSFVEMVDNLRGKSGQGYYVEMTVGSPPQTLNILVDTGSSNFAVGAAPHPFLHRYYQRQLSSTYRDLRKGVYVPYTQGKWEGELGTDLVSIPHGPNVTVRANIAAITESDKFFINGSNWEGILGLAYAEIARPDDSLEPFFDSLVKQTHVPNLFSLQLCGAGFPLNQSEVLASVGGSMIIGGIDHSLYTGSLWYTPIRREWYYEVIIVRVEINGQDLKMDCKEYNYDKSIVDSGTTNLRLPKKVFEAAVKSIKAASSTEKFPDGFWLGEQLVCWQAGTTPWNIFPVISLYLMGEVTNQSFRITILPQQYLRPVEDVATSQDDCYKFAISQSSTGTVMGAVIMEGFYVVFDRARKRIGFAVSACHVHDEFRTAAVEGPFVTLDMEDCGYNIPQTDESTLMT
molecule,measurement,setting,value
B1,Inhibition of cdMMP-9 (selectivity),[1],did not inhibit
same,Fab remained intact after exposure to protease,[2],76%
B2,Cleavage of APP571-696 by BACE1 in presence of IgG,[3],37%
same,Inhibition of BACE2 (selectivity),[4],but not BACE2
same,"Inhibition Potency KI (associated IgG, in parentheses)",[5],35 nM
B3,Degradation of Fab by cdMMP-12 D4,[6],no significant degradation
same,Fab remained intact after exposure to cdMMP-12 wt,[7],54%
same,Kd,[8],~700 nM
same,Kd,[9],720 nM
same,Inhibition FRET peptide,[10],non-
same,Inhibition of modified TEM-1 (PLGLEEAK) proteolysis,[11],significant inhibition
same,Type of inhibition (Lineweaver-Burk),[12],substrate competitive manner
same,Fibronectin remaining after cdMMP-12 wt hydrolysis,"[13]; 6 μM Fab, 350 nM wt cdMMP-12, 200 nM fibronectin, 37° C.",significant amounts of fibronectin remained
same,Inhibition Fibronectin IC50,"[13]; toward cdMMP-12 wild type, 200 nM enzyme, 200 nM fibronectin",Inhib.
